Holding throughout (conditions): FMN input: 0 or 200 uM; Eterna round: R93 (includes R88 designs)
In data set [1] the test system is MS2 coat protein. Put plainly: apparent KD of MS2 coat protein, switch OFF state (with FMN for OFF switches, without FMN for ON switches); designed switch direction (-1 OFF switch, 1 ON switch): 1; higher = weaker reporter binding. The method in brief:
(§1)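 Titrations with SNAP-549-labelled MS2 coat protein ran in twofold steps from 0.7 or 1.5 nM to 3 µM, each step taking 0.8–1.5 h at the start and 10–20 min toward the end. The targets were designed RNA switches transcribed on-chip from Illumina sequencing clusters, held in 100 mM Tris-HCl pH 7.5, 80 mM KCl, 4 mM MgCl2, without or with constant ligand. Apparent KD was taken per design as the median of normalised cluster binding-curve fits.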

Data set [2] relates to MS2 coat protein. The experiment in a line: apparent KD of MS2 coat protein, switch ON state; designed switch direction (-1 OFF switch, 1 ON switch): 1; higher = weaker reporter binding. The method in brief:
as §1

The subject of data set [3] is MS2 coat protein. The experiment in a line: apparent KD of MS2 coat protein, switch OFF state (with FMN for OFF switches, without FMN for ON switches); designed switch direction (-1 OFF switch, 1 ON switch): -1; higher = weaker reporter binding. Summed up:
as §1

Data set [4] relates to MS2 coat protein. Put plainly: apparent KD of MS2 coat protein, switch ON state; designed switch direction (-1 OFF switch, 1 ON switch): -1; higher = weaker reporter binding. The method in brief: as §1

“AACAAUCUAUCUGAGGAUAUGUGUCAAAAGACAUGAGGAUCACCCAUGUAAAAACAUGAAAAAACACAGAAGGCAGAUAGAUUGA [SS2: 1148]”: the “apparent KD of MS2 coat protein” value in the data set with MS2 coat protein [1] came out at 59.3 nM; with MS2 coat protein [2], 41.8 nM.
The matching figures for “AUUAAACAUGAGGAUCACCCAUGUGGCAAAAGCACAGGAUAUAGGAGUCCGAGCAGACAACUAGAAGGGUGGAAAA [Rixelexe]”: 53.7 nM and 28.8 nM.
Consider “AAUAUACAUGAGGAUCACCCAUGUUUUAAUAGUUGAGGAUAUACGGGUGAAAAUAGCAUAGUAGAAGGCGAGUGUA [SameState1 Malc#12]”, for which the “apparent KD of MS2 coat protein” value in the data set with MS2 coat protein [1] was 106 nM; in the data set with MS2 coat protein [2], 146 nM.
The matching figures for “GACGGACAUGAGGAUCACCCAUGUCGGAAAAGGCAAGGAUAUGGGCGGUACCAAUUUCGGUCAGAAGGUGCAAAAG [Beenedriar]”: 61 nM and 117 nM.
The matching figures for “AAUCCAAAUAGUCAGGAUAUCAAAAAUAAGACAUGAGGAUCACCCAUGUACUUAGUAAAAGUAAAUGAGAAGGGACAGGGUGAAA [JR_SS002_Sub403]”: 29.4 nM and 21.4 nM.
Take “CAGAGACAUGAGGAUCACCCAUGUAGGAUUAUGGGAGGAUAUACAAAGACGAGAGUCAGAGUAGAAGGCCUAGGAU [salish99-ss1-142]”: the “apparent KD of MS2 coat protein” value stood at 52.7 nM with MS2 coat protein [1] and 21.2 nM in the data set on MS2 coat protein [2].
The matching figures for “AAAUAACAUGAGGAUCACCCAUGUUACAACAAUACAGGAUAUGUGGGUGAAAAUAGCAUGACAGAAGGGUACUGUA [SameState1 Malc#33]”: 124 nM and 237 nM.
Consider “AACAAUCUAUCUGAGGAUAUCAUGACAAAGACAUGAGGAUCACCCAUGUGCAGGAAAACUGCUUAUGAGAAGGCAGAUAGAUUGA [SS2: 1113]”, for which the “apparent KD of MS2 coat protein” value is 14.6 nM in the data set with MS2 coat protein [1] and 11 nM in the data set on MS2 coat protein [2].
The like results for “GAGGACAUAGUUCAGGAUAUAUGAAUAGUCACAUGAGGAUCACCCAUGUCCAUUUAUAUGGGCACAUAGAAGGGAGGUAGUUAUC [SameState2 Malc#26]” were, in that order, 417 nM and 205 nM.
In the case of “AAGAAACAUGAGGAUCACCCAUGUACCCAAAAGCGAGGAUAUGGGAAAGAAAGAAAGAAACCAGAAGGCGCAUGAA [Darius II]”, the “apparent KD of MS2 coat protein” value with MS2 coat protein [1] is 35.5 nM; with MS2 coat protein [2], 20 nM.
The matching figures for “GGGAGACAUGAGGAUCACCCAUGUGAGAAGAGGCGAGGAUAUCGAAAAAAAAAAAAAAAACGAGAAGGCGCGAGAU [salish99-SS1-004]”: 300 nM and 74.4 nM.
The like results for “AAAAAACAUGAGGAUCACCCAUGUCAAAAGACAUGAGGAUAUGUACAGACUUCGGUCUGUACAGAAGGCAUGUAAA [SS1 - 1015]” were, in that order, 273 nM and 24.6 nM.
The matching figures for “AGGAAACAUGAGGAUCACCCAUGUAAAAAUAUGGGAGGAUAUACAAAGACGAAAGUGAGAGUAGAAGGCCUAAAAG [Garnet 18]”: 124 nM and 35.6 nM.
With “AAAAAACAUGAGGAUCACCCAUGUCGAAAGACGUGAGGAUAUGUACAGACUUCGGUCUGUACAGAAGGCAUGUAAA [SS1 - 1054]”, the “apparent KD of MS2 coat protein” value in the data set with MS2 coat protein [1] amounted to 1110 nM; with MS2 coat protein [2], 146 nM.
Take “AAAAUAAAAAGGUAGGAUAUGGGUAAAACUACAUGAGGAUCACCCAUGUAAUAAAAAGAAAAAAACCAGAAGGACCAAAAUAAAA [72%, More Wateronthemoon, 8]”: the “apparent KD of MS2 coat protein” value worked out at 34.7 nM in the data set on MS2 coat protein [1] and 13.2 nM in the data set on MS2 coat protein [2].
The like results for “GAAAAACAUGAGGAUCACCCAUGUGAAAAUAUGGGAGGAUAUACGAAGUCGAAAGUCAGAGUAGAAGGCCUAAAAG [Garnet 33]” were, in that order, 73.3 nM and 26.7 nM.
The matching figures for “GGAGCCGGCACUGAGGAUAUUCAUAUUAAAACAUGAGGAUCACCCAUGUAGGCCAGAAGGCCUUGGGAGAAGGCAGGUCGGCCCG [Bibimaor]”: 252 nM and 18.5 nM.
For “ACAAACAAAAGAGAGGAUAUCCAAAAGAAAACAUGAGGAUCACCCAUGUGAAAGAAAAUAAAAUGGGAGAAGGCUCAGAACAACA [Topaz 28]”, the “apparent KD of MS2 coat protein” value in the data set on MS2 coat protein [1] is 46.2 nM; in the data set on MS2 coat protein [2], 29.2 nM.
“AAAAAACAUGAGGAUCACCCAUGUCAGGAUAUGCUCAGCAAAAAAAAAAAAAAGAACGGUAGAAGGGACAGAAA [Bilbo Confounded 22 - Jieux - Exclusion 1]”: the “apparent KD of MS2 coat protein” value amounted to 50.7 nM in the data set on MS2 coat protein [3] and 56.1 nM with MS2 coat protein [4].

The values above are taken from the supplement of paper PMC9170038.
